Assay results taken from the DeepSol protein solubility set.

test: soluble on expression in E. coli; label from the status in PepcDB or PDB records

| Sequence | soluble on expression in E. coli |
| --- | --- |
| MPVLSIIACGMLEDELVHVLSKDCELKQLIVVENGNNSGFLRKLRAGKCIPRTIPLDRVQMFFKTGFNPDFETLAKFLAPFPFLGKVCEKMNEKAGQQVSVVVNLLRLGLHADLELLKSEVFRNIREMAAFSDGILIFYGTCGHVLGELEKDFIDLGCPLFFLKDKAGEIVEDCISTALGGNEAYARAMLACRGKGTIYLTPMWASSWKNFEKGSGSKDLNNRYLKNSRYCLAVKIETGISYEPDFHQNVQEFARTFGMKTITLKGSSEITEQGYFDARKALVKNSDCLPKNHQDMEFLEHHHHHH | not soluble |
| MGARQRMVASKGAVLSMLMDAYQKRDRVGLIAFKGDSAELLLPPTSSIELAQKYLQEMPTGGKTPISRGLVKGYEIIKSELRRDPDTCPFMVLISDGRANVSMNGEPPLHEIITIASRLKEEGIQSAVIDTESSMIKFGFAQQISTALGATYLTLENLKADSIVNAVRASAPFEIMMHPGVSSV | not soluble |
| MKNAVHFGAGNIGRGFIGKLLADAEVEVTFADVDVPLVDQLSHKQEYKVKVVGTECKIDTVTHVTAVNSASEDVIDRIVKTDLVTTAVGPNVLDIIAKTIAKGIAKRFEAGNDAPLNIIACENMVRGTTHLKGEVYKHLDKSLHAKADELVGFVDSAVDRIVPPAEAANDDPLEVTVESFSEWIVDEQQFKGDIPNIAGMEKTNNLMAFVERKLFTLNTGHCITAYLGCLKGHRTIREAIEDPNIHAEVKQAMQESGEVLIRRYGFDHDMHNAYIEKILGRFANPYLVDEVDRVGRQPIRKLGANDRLVKPLLGTIEYGTENQTLLKGIAAALKYTNDTDPQAVELQTSLKEVGVTKTLAKYTGLAEDSDEVAQIETLYNQL | not soluble |
| MGSDKIHHHHHHMPLTMNKDVFITCAVTGSGSTQDRSPHVPRSPKQIAESAIEAARAGAAIVHCHVRDPESGAPSRDLSYYREVTDRIREADIDVVLNLTAGMGGDITFGSTDAPFPVDEAGTDMVGAAERVAHIADCLPEICTLDCGTMNFAEADYVMTNTPGMLRAMGRMMTDLGVKPEIEAFDTGHLWFAKELVKEGVLDSPALVQLCMGVPWGAPDDLNTFMAMVNNVPDNWTFSAFALGRNEMAYVAASVLAGGNVRVGLEDNLWLEKGVLATNAQLVEQAVGIIEGMGARVIGPDMVRETLGLTKQAPA | not soluble |
| MSLDIVLVGCKGFGKEHLRIYSKLGYDVSIVERDSNEAKRCSELFRVYKVYDNYEDALRSGSNIVDLVVPDGLHYEMGSLALKSKKHLLVEKPITPDIDSGISLIQQAEESKLKLMVAEQFYFDPSVNEAIRRINNGEIGKPHTVIVRHQSFRELKGWRNEKSMMGRGILIDEGTHYIDTLLNFGGRYRSLRSFVHRTWDFLGEDTAEAVFNFENGMHGLFFYSWNYPEYPLLPEFEIIGDAGSIYEDIGTKPTEPWDQRKRKTAYGDIIVNGKHIPVEPYDVIEREISGFLNAVEKDEPVPMPPDLALRDIITIDRIYKASSDEGHHHHHH | soluble |
| MSSYDVVIIGGGPAGLFAAYELAGLAKDNVSNYKILLVDKGARASKRTCPLLSPKEKCTFCDPCHIMYGFGGAGTFSSGIINLRPDIGGELHEITRSWDKAQELINYVDDIFVKFGAPKDRVFEPNMEKVREIQRRAAKVGAEFVPIRQRHMGTDKTPLIIENIVNYVEKRGIKIGELTEVIDIEKKGNKFFLKTSRGEIESRIVLVAPGRAGAKWFYEQSKKLGVDTIPGPLDIGVRVETESFVFDELTEAVWDPKVILYSKRYDDKVRTFCVNPRGYIMKEVYDDGTIGVNGETYVDKKSNNTNFAFLTTIKLSDPLEDTIEYGKSIARLMTRLGGGKPILQRLIDFQKGRRSTWERINRSTVKPTLRDVTPGDISMGLPYRVVDNLIDGLERLDSIAPGIFSSNTLLYAPEIKYYSVRAVVDNNMETVVDNLFAAGDGTGLSRGINVAAATGILAARGIAIKLGLDLEHHHHHH | not soluble |
| MCGRIAQKSAPEDYVEILWPNARLIFDDVAGPRYNIPPGTRPLTMHRLVDQAEALARLPWGYKPHGSSFFMINAKLETIERHGWPWKLMIGTGRILVPADGWYEWKALDSGPKPAKQPYYIHGDAPLLFAGLSAWRRGAELDEAHGFAIVTNDALGGMVDVHDRRPVALPPELAREWVDPATPVARAKEILRAGLPETAFSWYPVRQEVGSSKYQLPDAVDPLLEHHHHHH | soluble |
| MTKTSKASGLSWFFCDLDGTLLRYQNNQHLIEPTTKRAVAQLVESGANFVVATGRKPSDVRNIYKELGIEQASPYLIANNGAVVWDLKRNSYLNKQTLSLSDFDLIDHINQTLNQLNHEYGCILYGLNDQVYFYHIHAPDSQAFKQYFAFYEGEFVQNQYLEIDGLKTEYNLVKAIWFFKEVHQQKAVIAQHFTNQERLVITSAHSFELVPLNVSKGHAINLIKQQVKITDNQIMVLGDSYNDLPMFQHGVVKVTNHLAPDNLKQLATRVYELPASLFVGQALNDYFKFD | not soluble |
| MSIMKTADRPHAMNRRQDAIFLEVFWARVRSIADEAAKLIVRTSFSTLSTEANDFTVVVTDSAGRCLTENSGSIPAFIGTLPATVQAVIAKYPHHTLRPGDVFITNDPWIGTGHLNDVCLVKPVFHLGKVVAFAATAGHVPDIGGRFRSVNAHELFEEGLQIPVIRLLDQGAPNEAILDMIRTNVRTPDQTAGDIWSQASAVELVARRLGEVLVEYALPGVDDIAEALFERGDRALRKAISALPDGQYRYAMQTDGFEQRLDLAVTVRIEGDAITCDFTGTSPQQPRAINCPLGYTTAMAVYAIKCLLVPDIPNSDGMLRAIRVEAPEHSLLNPARPAAVGGRASTGHYLPVLIFGAMHAVLPERVMAGAGSPLWSANISGTGADGLPMATVLFFNGGMGATCGKDGAAVMSWPSNISPTPVEVAERDIPLFFRYKRLRVDSGGPGQWRGGLGEEVCMVSRHDRPLSVVFLAERTREPAPGLGGGQAGVPGAVWINGVAVDVRERHLLNPGDELVMRTPGGGGFGPPGQRDPALADHDYRLGYSAAPGTARQS | not soluble |
| MNINIVTIGKLKEKYLKQGIEEYTKRLSAYAKIDIIELPDEKAPENLSDQDMKIIKDKEGDRILSKISPDAHVIALAIEGKMKTSEELADTIDKLATYGKSKVTFVIGGSLGLSDTVMKRADEKLSFSKMTFPHQLMRLILVEQIYRAFRINRGEPYHKLEHHHHHH | soluble |
| MNAQIKIINTANGYMALCQDTPEDITPAWFSVDFWREKSAVVGSSKGRYTTWFVAFEHSHWVLRHYWRGGMMEKFSKDAYFYTGLENTRAMGELRLLDALYREQFAVPKPIAANIVRDGLFYRADIIIERVDGAEDLVAKLTKGTMTQAQWHALGATIAQFHRRGVYHADLNAKNILWQPQQTDSAQERFYLIDFDRGELKTPNAKWQKANLDRLLRSFNKEQGKQPTLAFTPANWAALLEGYHAVVPKVAAALEHHHHHH | soluble |
| SDSAFANLDAAGFLQIWQHFDADDNGYIEGKELDDFFRHMLKKLQPKDKITDERVQQIKKSFMSAYDATFDGRLQIEELANMILPQEENFLLIFRREAPLDNSVEFMKIWRKYDADSSGYISAAELKNFLKDLFLQHKKKIPPNKLDEYTDAMMKIFDKNKDGRLDLNDLARILALQENFLLQFKMDASSQVERKRDFEKIFAHYDVSRTGALEGPEVDGFVKDMMELVRPSISGGDLDKFRECLLTHCDMNKDGKIQKSELALCLGLKHKP | soluble |
| MSLDGPVVFICGKCKLPVGDSLSWDGSEDEQNQIRLKRVTDNVYVGKENRMYEVGKRSLCLIVDLLCQGCHSVLGMVYASTPKNMDHKRFTFCLNVADIDSYVLGSASQSLAAGGAGEQPVTLEYRSQVEEQLSQMKMLVMSMALKLEEIEIGRREGYEREGHHHHHH | not soluble |
| MENVCFQQRLRDLETRVRKWKFLKLGLTEVRLRPRDRRSTSVDQKHKECSSTSSSPQHQRPNNIGYLTSPMERKFTPLSMKPSPSRRDTEKDALEYEFLEGYKKSGTLEIDGEKQVVDPNEIHIISLLGSGSCGVVESATVRSKLMAVKTMYKNDNKENLKRILRDVRIMSMCNSPFIVTSYGYFMFDSSVKICMQIMSACCEKLLRRIYHSKLDFFPEFVAGHIVYSAISALDYLKEKHSIIHRDIKPSNILFDDSGNVKLCDFGISGFMTDSMAHSKSAGCPPYMAPERLTIETNSKYDVRSDVWSLGITVYQLVTGLYPFPLNDMEFTTLTIIANLNLPSPSLREETKRSFSPLFIEFLDLCLRKDVRERPEYRQLMKHDFYLDYDPASGSAYKFKAINGKCNQVADWFVDVIRLSKTEDELKSIPNTPCVN | not soluble |
